From patent publication US20060084791A1
“And” between values parts separate entries of the source, which are not always exact repeats. Equal values may be shown once.

Tests used:
Test in all cases: cell-based or functional assay
[1] = target: ecotropic receptor mCAT-1 (UniProt Q09143)
[2] = target: polytropic/xenotropic receptor encoded by the Rmc1 locus of the NIH Swiss inbred NFS/N mouse (mouse (NIH Swiss; NIH 3T3 cells)) (UniProt Q9Z0U0)
[3] = target: human polytropic/xenotropic receptor encoded by the human RMC1 locus (human) (UniProt Q9UBH6)
human polytropic/xenotropic receptor encoded by the human RMC1 locus (human), sequence (Q9UBH6 whole entry): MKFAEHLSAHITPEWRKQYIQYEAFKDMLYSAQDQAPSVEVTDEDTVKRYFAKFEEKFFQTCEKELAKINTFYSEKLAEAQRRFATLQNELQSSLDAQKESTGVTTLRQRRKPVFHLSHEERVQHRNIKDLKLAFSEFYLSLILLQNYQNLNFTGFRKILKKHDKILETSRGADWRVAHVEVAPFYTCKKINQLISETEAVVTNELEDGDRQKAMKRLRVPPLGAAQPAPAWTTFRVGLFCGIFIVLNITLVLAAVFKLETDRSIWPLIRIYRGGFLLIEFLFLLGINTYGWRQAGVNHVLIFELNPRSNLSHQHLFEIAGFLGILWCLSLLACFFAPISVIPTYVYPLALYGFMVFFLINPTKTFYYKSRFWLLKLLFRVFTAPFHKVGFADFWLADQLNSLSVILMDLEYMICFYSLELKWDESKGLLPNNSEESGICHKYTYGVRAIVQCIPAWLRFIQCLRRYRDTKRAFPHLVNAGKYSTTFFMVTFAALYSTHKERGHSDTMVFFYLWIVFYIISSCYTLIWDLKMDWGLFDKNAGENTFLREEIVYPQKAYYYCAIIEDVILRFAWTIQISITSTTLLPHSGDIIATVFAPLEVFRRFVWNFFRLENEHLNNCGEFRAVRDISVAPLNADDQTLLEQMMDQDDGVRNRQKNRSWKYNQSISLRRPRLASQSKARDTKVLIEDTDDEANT

polytropic/xenotropic receptor encoded by the Rmc1 locus of the NIH Swiss inbred NFS/N mouse (mouse (NIH Swiss; NIH 3T3 cells)), sequence (Q9Z0U0 whole entry): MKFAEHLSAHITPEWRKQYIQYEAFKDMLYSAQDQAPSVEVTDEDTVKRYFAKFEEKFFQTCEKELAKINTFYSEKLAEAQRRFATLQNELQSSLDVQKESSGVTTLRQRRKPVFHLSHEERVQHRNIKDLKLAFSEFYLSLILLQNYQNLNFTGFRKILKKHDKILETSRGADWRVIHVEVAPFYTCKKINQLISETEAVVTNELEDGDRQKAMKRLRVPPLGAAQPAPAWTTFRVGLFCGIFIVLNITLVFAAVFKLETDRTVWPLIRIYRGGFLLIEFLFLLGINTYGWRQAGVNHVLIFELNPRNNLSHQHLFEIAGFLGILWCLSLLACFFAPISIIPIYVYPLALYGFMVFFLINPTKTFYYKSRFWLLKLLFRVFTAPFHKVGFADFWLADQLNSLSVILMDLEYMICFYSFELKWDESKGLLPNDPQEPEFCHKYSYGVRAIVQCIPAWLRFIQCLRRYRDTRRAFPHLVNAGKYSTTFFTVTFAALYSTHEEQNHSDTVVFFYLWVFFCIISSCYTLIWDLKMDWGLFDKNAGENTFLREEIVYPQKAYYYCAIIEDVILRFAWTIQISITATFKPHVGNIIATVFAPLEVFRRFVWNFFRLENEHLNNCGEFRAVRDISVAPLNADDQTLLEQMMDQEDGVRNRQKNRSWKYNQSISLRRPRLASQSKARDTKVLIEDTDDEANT
ecotropic receptor mCAT-1, sequence (Q09143 whole entry): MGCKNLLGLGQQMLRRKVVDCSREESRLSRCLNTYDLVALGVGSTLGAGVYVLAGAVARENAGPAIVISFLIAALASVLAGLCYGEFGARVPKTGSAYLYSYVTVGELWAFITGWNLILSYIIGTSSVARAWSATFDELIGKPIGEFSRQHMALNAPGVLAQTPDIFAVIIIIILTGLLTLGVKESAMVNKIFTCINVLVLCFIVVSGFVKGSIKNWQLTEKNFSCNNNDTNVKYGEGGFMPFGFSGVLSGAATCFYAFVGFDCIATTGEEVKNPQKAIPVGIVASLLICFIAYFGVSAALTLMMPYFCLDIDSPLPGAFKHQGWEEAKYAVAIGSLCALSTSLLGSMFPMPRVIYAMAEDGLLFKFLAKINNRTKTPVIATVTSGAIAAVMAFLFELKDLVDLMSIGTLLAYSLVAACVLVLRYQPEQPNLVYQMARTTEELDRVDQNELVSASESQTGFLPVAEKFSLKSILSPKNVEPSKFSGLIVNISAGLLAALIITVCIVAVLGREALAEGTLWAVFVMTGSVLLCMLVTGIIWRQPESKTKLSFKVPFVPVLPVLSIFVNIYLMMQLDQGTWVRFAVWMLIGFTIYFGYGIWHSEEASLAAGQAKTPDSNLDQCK

Substance: Akv MLV envelope protein (ecotropic envelope) (from UniProt P03386 32-669)
- fold lowering of titer on PSI-2 cells against NIH 3T3 cells [1]: 10000 fold
- titer of mini-virus on HeLa mCAT cells [1]: 50000 cfu/mL and 30000 cfu/mL
- titer of mini-virus on NIH3T3 cells [1]: 1.6e+06 cfu/mL and 800000 cfu/mL
- titer of mini-virus on PSI-2 cells (ecotropic receptor blocked by ecotropic envelope) [1]: 170 cfu/mL and 120 cfu/mL

Substance: S/M VRA (SL3-2 envelope with the VRA segment of MCF 247)
- titer on NIH 3T3/MCF 247 cells (polytropic receptor blocked) [2]: 2.5 cfu/mL
- titer on NIH 3T3 cells [2]: 225000 cfu/mL
- titer on Psi-2 cells (ecotropic receptor blocked) [2]: 400000 cfu/mL
- titer on HeLa cells [3]: 0 cfu/mL
- titer on TE 671 cells [3]: 2.5 cfu/mL

Substance: SL3-2 envelope mutant RI (R at 212, I at 213) (from UniProt P03388 33-640)
- Titer (cfu/mL) on NIH 3T3 cells [2]: 3.25e+06 cfu/mL
- titer on NIH 3T3 (murine) cells [2]: 6.4e+06 c.f.u./ml
- Titer (cfu/mL) on TE 671 cells [3]: 22.5 cfu/mL
- titer on TE 671 (human) cells [3]: 24 c.f.u./ml

Substance: SL3-2 envelope mutant MI (M at 212, I at 213) (from UniProt P03388 33-640)
- titer on NIH 3T3 (murine) cells [2]: 240000 c.f.u./ml
- titer on TE 671 (human) cells [3]: 28000 c.f.u./ml

Substance: MCF 247 envelope protein (polytropic MLV MCF-247)
- titer on NIH 3T3 (murine) cells [2]: 4.8e+06 c.f.u./ml
- Titer on 293 cells [3]: 2400 c.f.u./ml
- Titer on Human HeLa cells [3]: 2 c.f.u./ml
- Titer on TE 671 cells transfected with MCF 247 (receptor blocked by MCF 247 envelope) [3]: 16 c.f.u./ml
- titer on TE 671 (human) cells [3]: 150 c.f.u./ml

Substance: SL3-2 envelope mutant MA (M at 212, A at 213) (from UniProt P03388 33-640)
- titer on NIH 3T3 (murine) cells [2]: 9.6e+06 c.f.u./ml
- titer on TE 671 (human) cells [3]: 250000 c.f.u./ml

Substance: SL3-2 envelope mutant GI (G at 212, I at 213) (from UniProt P03388 33-640)
- Titer (cfu/mL) on NIH 3T3 cells [2]: 2e+06 cfu/mL
- titer on NIH 3T3 (murine) cells [2]: 7.6e+06 c.f.u./ml
- Titer (cfu/mL) on TE 671 cells [3]: 450000 cfu/mL
- Titer on 293 cells [3]: 200000 c.f.u./ml
- Titer on Human HeLa cells [3]: 130 c.f.u./ml
- Titer on TE 671 cells transfected with MCF 247 (receptor blocked by MCF 247 envelope) [3]: 6000 c.f.u./ml
- fold decrease of titer on TE 671 cells expressing MCF 247 envelope [3]: 100 fold
- fold rise of titer on human cells against wild type SL3-2 [3]: 100000 fold
- titer on TE 671 (human) cells [3]: 440000 c.f.u./ml

Substance: S/M VRB (SL3-2 envelope with the VRB segment of MCF 247)
- titer on NIH 3T3/MCF 247 cells (polytropic receptor blocked) [2]: 2.5 cfu/mL
- titer on NIH 3T3 cells [2]: 3e+06 cfu/mL
- titer on Psi-2 cells (ecotropic receptor blocked) [2]: 500000 cfu/mL
- titer on HeLa cells [3]: 0 cfu/mL
- titer on TE 671 cells [3]: 5 cfu/mL

Substance: S/M Leader (SL3-2 envelope with the signal peptide of MCF 247)
- titer on NIH 3T3/MCF 247 cells (polytropic receptor blocked) [2]: 12.5 cfu/mL
- titer on NIH 3T3 cells [2]: 200000 cfu/mL
- titer on Psi-2 cells (ecotropic receptor blocked) [2]: 100000 cfu/mL
- titer on HeLa cells [3]: 0 cfu/mL
- titer on TE 671 cells [3]: 5 cfu/mL

Substance: SL3-2 envelope polypeptide (wild type envelope protein of Murine Leukaemia Virus SL3-2) (from UniProt P03388 33-640)
- Titer (cfu/mL) on TE 671 cells [3]: 4.75 cfu/mL
- Titer on 293 cells [3]: < 2 c.f.u./ml
- Titer on Human HeLa cells [3]: < 2 c.f.u./ml
- titer on HeLa cells [3]: 0 cfu/mL
- titer on TE 671 (human) cells [3]: < 4 c.f.u./ml
- titer on TE 671 cells [3]: < 2 c.f.u./ml

Substance: SL3-2 envelope mutant CR (C at 212, R at 213) (from UniProt P03388 33-640)
- titer on NIH 3T3 (murine) cells [2]: 2.4e+06 c.f.u./ml
- titer on TE 671 (human) cells [3]: 12 c.f.u./ml

Substance: SL3-2 envelope mutant MV (M at 212, V at 213) (from UniProt P03388 33-640)
- titer on NIH 3T3 (murine) cells [2]: 9.6e+06 c.f.u./ml
- Titer on 293 cells [3]: 240000 c.f.u./ml
- Titer on Human HeLa cells [3]: 100 c.f.u./ml
- Titer on TE 671 cells transfected with MCF 247 (receptor blocked by MCF 247 envelope) [3]: 16000 c.f.u./ml
- fold decrease of titer on TE 671 cells expressing MCF 247 envelope [3]: 100 fold
- fold rise of titer on human cells against the GI mutant [3]: > 10 fold
- titer on TE 671 (human) cells [3]: 7.2e+06 c.f.u./ml

Substance: SL3-2 envelope mutant LI (L at 212, I at 213) (from UniProt P03388 33-640)
- titer on NIH 3T3 (murine) cells [2]: 2.4e+06 c.f.u./ml
- Titer on 293 cells [3]: 12000 c.f.u./ml
- Titer on TE 671 cells transfected with MCF 247 (receptor blocked by MCF 247 envelope) [3]: 68 c.f.u./ml
- fold decrease of titer on TE 671 cells expressing MCF 247 envelope [3]: 100 fold
- titer on TE 671 (human) cells [3]: 1200 c.f.u./ml

Substance: SL3-2 envelope mutant GT (G at 212, T at 213) (from UniProt P03388 33-640)
- Titer (cfu/mL) on NIH 3T3 cells [2]: 2e+06 cfu/mL
- titer on NIH 3T3 (murine) cells [2]: 8.4e+06 c.f.u./ml
- Titer (cfu/mL) on TE 671 cells [3]: 1500 cfu/mL
- titer on TE 671 (human) cells [3]: 520 c.f.u./ml

Substance: SL3-2 envelope mutant LV (L at 212, V at 213) (from UniProt P03388 33-640)
- titer on NIH 3T3 (murine) cells [2]: 3.6e+06 c.f.u./ml
- titer on TE 671 (human) cells [3]: 16000 c.f.u./ml

Substance: SL3-2 envelope mutant GK (G at 212, K at 213) (from UniProt P03388 33-640)
- titer on NIH 3T3 (murine) cells [2]: 5.2e+06 c.f.u./ml
- titer on TE 671 (human) cells [3]: 5600 c.f.u./ml

Substance: SL3-2 envelope mutant GA (G at 212, A at 213) (from UniProt P03388 33-640)
- titer on NIH 3T3 (murine) cells [2]: 5.6e+06 c.f.u./ml
- titer on TE 671 (human) cells [3]: 2800 c.f.u./ml

Substance: SL3-2 envelope mutant GV (G at 212, V at 213) (from UniProt P03388 33-640)
- titer on NIH 3T3 (murine) cells [2]: 3.6e+06 c.f.u./ml
- titer on TE 671 (human) cells [3]: 320000 c.f.u./ml

Substance: SL3-2 envelope mutant RA (R at 212, A at 213) (from UniProt P03388 33-640)
- titer on NIH 3T3 (murine) cells [2]: 1e+07 c.f.u./ml
- titer on TE 671 (human) cells [3]: 4 c.f.u./ml

Substance: S/M VR3 (SL3-2 envelope with the VR3 region of MCF 247) (from UniProt P03388 33-640)
- titer on NIH 3T3/MCF 247 cells (polytropic receptor blocked) [2]: 2.5 cfu/mL
- titer on NIH 3T3 cells [2]: 500000 cfu/mL
- titer on Psi-2 cells (ecotropic receptor blocked) [2]: 300000 cfu/mL
- titer on HeLa cells [3]: 250 cfu/mL
- titer on TE 671 cells [3]: 22500 cfu/mL

Substance: SL3-2 envelope mutant LA (L at 212, A at 213) (from UniProt P03388 33-640)
- titer on NIH 3T3 (murine) cells [2]: 1.1e+07 c.f.u./ml
- titer on TE 671 (human) cells [3]: 5200 c.f.u./ml
